{"source": "paper PMC5756113", "about": "(Peptides, 2017)", "key": {"[1]": {"conditions": "mouse, in vivo"}, "[2]": {"conditions": "mouse, in vivo", "remark": "listed apart in the source"}, "[3]": {"conditions": "in vivo, cited from earlier work"}}, "data": [{"substance": "I-PACAP38: 38-amino acid form of PACAP (Bachem) radioactively labeled with 125I by the lactoperoxidase method", "values": [{"measurement": "Average rate of I-PACAP38 transport into whole brain in the No-Sham Controls", "setting": "[1]", "result": 2.35, "unit": "µL/g/min"}, {"measurement": "Average rate of transport into the whole brain for all groups", "setting": "[1]", "result": 2.98, "unit": "µL/g/min"}, {"measurement": "Increase in the Vi, CCI versus Sham", "setting": "[1]", "result": 1.4, "unit": "fold"}, {"measurement": "Transport rate in cerebellum compared to the cortices and whole brain", "setting": "[1]", "result": "~2", "unit": "fold"}, {"measurement": "%Inj/g in cerebellum (average)", "setting": "[2]", "result": 0.37, "unit": "%Inj/g"}, {"measurement": "Amount of I-PACAP38 to enter the brain (value calculated here)", "setting": "[2]", "result": 0.15, "unit": "%Inj/g"}, {"measurement": "I-PACAP38 %Inj/g in the ipsilateral cortex, CCI compared to Sham", "setting": "[2]", "result": "nearly a doubling"}, {"measurement": "Rate of PACAP38 transport across the mouse BBB", "setting": "[3]", "result": 2.86, "unit": "µL/g/min"}, {"measurement": "Amount of I-PACAP38 to enter the brain", "setting": "[3]; mouse", "result": 0.119, "unit": "%Inj/g"}, {"measurement": "Vi previously reported", "setting": "[3]; mouse", "result": 18.5, "unit": "µL/g"}]}, {"substance": "Pituitary adenylate cyclase-activating polypeptide 38 [PACAP38, reference compound]", "values": [{"measurement": "Increase in the rate of transport at 72 hours post-CCI compared to the 2 hour time point", "setting": "[1]", "result": "2–3 fold"}, {"measurement": "Rate of PACAP38 transport across the mouse BBB", "setting": "[3]", "result": "2.86 ± 0.57", "unit": "µL/g/min"}, {"measurement": "Half-time disappearance of PACAP38 from the blood", "setting": "[3]; mouse", "result": 0.82, "unit": "min"}]}]}
